Reference: the supplement of paper PMC10567573

B1: TRAF3IP2 (parent)
chain: KQGSMNFRFIPVLFPNAKKEHVPT

Variants of: B1
Experiment: protein stability index of a GFP-peptide fusion (GPS, HEK-293T) (PSI 1-6); higher = more stable
Settings: c terminus: a fixed tail appended
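Also: lentivirally expressed fusions sorted by FACS into six bins by GFP to DsRed ratio, PSI derived from sequencing read proportions per bin multiplied by bin number.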

Variant	protein stability index
KQGSMNFRFIPVDFPNAKKEHVPT [L13D]	2.62
KQGSMNFRFIPVAFPNAKKEHVPT [L13A]	1.66
KQGSMNFRFIPVYFPNAKKEHVPT [L13Y]	1.82
KQGSMNFRFIPVCFPNAKKEHVPT [L13C]	2.07
KQGSMNFRFIPVKFPNAKKEHVPT [L13K]	2.06
KQGSMNFRFIPVVFPNAKKEHVPT [L13V]	2.01
KQGSMNFRFIPVGFPNAKKEHVPT [L13G]	1.93
KQGSMNFRFIPVPFPNAKKEHVPT [L13P]	1.87
KQGSMNFRFIPVHFPNAKKEHVPT [L13H]	2.38
KQGSMNFRFIPVEFPNAKKEHVPT [L13E]	2.88
KQGSMNFRFIPVTFPNAKKEHVPT [L13T]	1.86
KQGSMNFRFIPVNFPNAKKEHVPT [L13N]	2.28
KQGSMNFRFIPVWFPNAKKEHVPT [L13W]	2.09
KQGSMNFRFIPVRFPNAKKEHVPT [L13R]	1.93
KQGSMNFRFIPVFFPNAKKEHVPT [L13F]	2.04
KQGSMNFRFIPVQFPNAKKEHVPT [L13Q]	2.02
KQGSMNFRFIPVSFPNAKKEHVPT [L13S]	2.14
KQGSMNFRFIPVMFPNAKKEHVPT [L13M]	1.77
KQGSMNFRFIPVIFPNAKKEHVPT [L13I]	1.75
KQGSMNFRFIPVLFPNAFKEHVPT [K18F]	1.77
KQGSMNFRFIPVLFPNAWKEHVPT [K18W]	1.65
KQGSMNFRFIPVLFPNAGKEHVPT [K18G]	2.04
KQGSMNFRFIPVLFPNAPKEHVPT [K18P]	1.77
KQGSMNFRFIPVLFPNAQKEHVPT [K18Q]	1.77

Variant	protein stability index
KQGSMNFRFIPVLFPNAHKEHVPT [K18H]	1.89
KQGSMNFRFIPVLFPNACKEHVPT [K18C]	1.71
KQGSMNFRFIPVLFPNADKEHVPT [K18D]	2.34
KQGSMNFRFIPVLFPNANKEHVPT [K18N]	1.93
KQGSMNFRFIPVLFPNAAKEHVPT [K18A]	1.76
KQGSMNFRFIPVLFPNARKEHVPT [K18R]	1.6
KQGSMNFRFIPVLFPNAEKEHVPT [K18E]	2.15
KQGSMNFRFIPVLFPNAIKEHVPT [K18I]	2.27
KQGSMNFRFIPVLFPNAVKEHVPT [K18V]	1.65
KQGSMNFRFIPVLFPNAYKEHVPT [K18Y]	1.84
KQGSMNFRFIPVLFPNATKEHVPT [K18T]	1.85
KQGSMNFRFIPVLFPNALKEHVPT [K18L]	1.61
KQGSMNFRFIPVLFPNASKEHVPT [K18S]	1.71
KQGSMNFRFIPVLFPNAMKEHVPT [K18M]	1.76
KQGSMNFRYIPVLFPNAKKEHVPT [F9Y]	2.5
KQGSMNFRTIPVLFPNAKKEHVPT [F9T]	3.66
KQGSMNFRVIPVLFPNAKKEHVPT [F9V]	2.77
KQGSMNFRSIPVLFPNAKKEHVPT [F9S]	3.2
KQGSMNFRWIPVLFPNAKKEHVPT [F9W]	2.31
KQGSMNFRRIPVLFPNAKKEHVPT [F9R]	2.84
KQGSMNFRFIPVLFCNAKKEHVPT [P15C]	1.7
KQGSMNFRFIPVLFENAKKEHVPT [P15E]	2.14
KQGSMNFRFIPVLFLNAKKEHVPT [P15L]	2.43
KQGSMNFRFIPVLFDNAKKEHVPT [P15D]	2.05

Variant	protein stability index
KQGSMNFRFIPVLFSNAKKEHVPT [P15S]	1.75
KQGSMNFRFIPVLFINAKKEHVPT [P15I]	2.17
KQGSMNFRFIPVLFMNAKKEHVPT [P15M]	1.58
KQGSMNFRFIPVLFKNAKKEHVPT [P15K]	1.52
KQGSMNFRFIPVLFNNAKKEHVPT [P15N]	1.87
KQGSMNFRFIPVLFTNAKKEHVPT [P15T]	2.54
KQGSMNFRFIPVLFRNAKKEHVPT [P15R]	1.92
KQGSMNFRFIPVLFYNAKKEHVPT [P15Y]	2.04
KQGSMNFRFIPVLFWNAKKEHVPT [P15W]	2.67
KQGSMNFRFIPVLFGNAKKEHVPT [P15G]	1.49
KQGSMNFRFIPVLFVNAKKEHVPT [P15V]	2.56
KQGSMNFRFIPVLFANAKKEHVPT [P15A]	1.66
KQGSMNFRFIPVLFHNAKKEHVPT [P15H]	1.87
KQGSMNFRFIPVLFFNAKKEHVPT [P15F]	2.2
KQGSMNFRFIPVLFQNAKKEHVPT [P15Q]	1.41
KQGSMNFRFIPVLMPNAKKEHVPT [F14M]	2.56
KQGSMNFRFIPVLSPNAKKEHVPT [F14S]	2.42
KQGSMNFRFIPVLVPNAKKEHVPT [F14V]	2.3
KQGSMNFRFIPVLRPNAKKEHVPT [F14R]	1.8
KQGSMNFRFIPVLKPNAKKEHVPT [F14K]	2.62
KQGSMNFRFIPVLHPNAKKEHVPT [F14H]	2.12
KQGSMNFRFIPVLTPNAKKEHVPT [F14T]	2.76
KQGSMNFRFIPVLYPNAKKEHVPT [F14Y]	1.95
KQGSMNFRFIPVLAPNAKKEHVPT [F14A]	1.88

Variant	protein stability index
KQGSMNFRFIPVLLPNAKKEHVPT [F14L]	1.68
KQGSMNFRFIPVLQPNAKKEHVPT [F14Q]	2.71
KQGSMNFRFIPVLDPNAKKEHVPT [F14D]	2.77
KQGSMNFRFIPVLNPNAKKEHVPT [F14N]	2.06
KQGSMNFRFIPVLPPNAKKEHVPT [F14P]	2.71
KQGSMNFRFIPVLGPNAKKEHVPT [F14G]	2.29
KQGSMNFRFIPVLEPNAKKEHVPT [F14E]	3.19
KQGSMNFRFIPVLIPNAKKEHVPT [F14I]	1.36
KQGSMNFRFIPVLWPNAKKEHVPT [F14W]	2.46
KQGSMNFRFIPVLCPNAKKEHVPT [F14C]	1.87
KQGSMNFRFIPGLFPNAKKEHVPT [V12G]	1.96
KQGSMNFRFIPLLFPNAKKEHVPT [V12L]	2.12
KQGSMNFRFIPILFPNAKKEHVPT [V12I]	2.14
KQGSMNFRFIPPLFPNAKKEHVPT [V12P]	2.33
KQGSMNFRFIPSLFPNAKKEHVPT [V12S]	2.35
KQGSMNFRFIPMLFPNAKKEHVPT [V12M]	1.86
KQGSMNFRFIPYLFPNAKKEHVPT [V12Y]	1.97
KQGSMNFRFIPHLFPNAKKEHVPT [V12H]	2.39
KQGSMNFRFIPCLFPNAKKEHVPT [V12C]	2.35
KQGSMNFRFIPFLFPNAKKEHVPT [V12F]	2.14
KQGSMNFRFIPDLFPNAKKEHVPT [V12D]	2.17
KQGSMNFRFIPALFPNAKKEHVPT [V12A]	2.31
KQGSMNFRFIPELFPNAKKEHVPT [V12E]	2.76
KQGSMNFRFIPKLFPNAKKEHVPT [V12K]	2.39

Variant	protein stability index
KQGSMNFRFIPQLFPNAKKEHVPT [V12Q]	2.4
KQGSMNFRFIPRLFPNAKKEHVPT [V12R]	2.49
KQGSMNFRFIPTLFPNAKKEHVPT [V12T]	1.86
KQGSMNFRFIPNLFPNAKKEHVPT [V12N]	2.84
KQGSMNFRFIPWLFPNAKKEHVPT [V12W]	2.06
KQGSMNFRFIVVLFPNAKKEHVPT [P11V]	2.91
KQGSMNFRFIEVLFPNAKKEHVPT [P11E]	1.45
KQGSMNFRFITVLFPNAKKEHVPT [P11T]	1.86
KQGSMNFRFIWVLFPNAKKEHVPT [P11W]	2.25
KQGSMNFRFIGVLFPNAKKEHVPT [P11G]	2.35
KQGSMNFRFIMVLFPNAKKEHVPT [P11M]	2.98
KQGSMNFRFILVLFPNAKKEHVPT [P11L]	2.75
KQGSMNFRFIIVLFPNAKKEHVPT [P11I]	3.73
KQGSMNFRFIYVLFPNAKKEHVPT [P11Y]	3.97
KQGSMNFRFICVLFPNAKKEHVPT [P11C]	3.83
KQGSMNFRFIDVLFPNAKKEHVPT [P11D]	2.37
KQGSMNFRFIAVLFPNAKKEHVPT [P11A]	2.39
KQGSMNFRFIRVLFPNAKKEHVPT [P11R]	2.14
KQGSMNFRFIQVLFPNAKKEHVPT [P11Q]	1.85
KQGSMNFRFIFVLFPNAKKEHVPT [P11F]	3.53
KQGSMNFRFINVLFPNAKKEHVPT [P11N]	1.7
KQGSMNFRFIHVLFPNAKKEHVPT [P11H]	2.14
KQGSMNFRFISVLFPNAKKEHVPT [P11S]	1.36
KQGSMNFRFIKVLFPNAKKEHVPT [P11K]	2.02

Variant	protein stability index
KQGSMNFRFTPVLFPNAKKEHVPT [I10T]	2.07
KQGSMNFRFQPVLFPNAKKEHVPT [I10Q]	1.98
KQGSMNFRFFPVLFPNAKKEHVPT [I10F]	2.11
KQGSMNFRFWPVLFPNAKKEHVPT [I10W]	1.97
KQGSMNFRFEPVLFPNAKKEHVPT [I10E]	3.16
KQGSMNFRFYPVLFPNAKKEHVPT [I10Y]	2.29
KQGSMNFRFRPVLFPNAKKEHVPT [I10R]	2.75
KQGSMNFRFAPVLFPNAKKEHVPT [I10A]	1.98
KQGSMNFRFPPVLFPNAKKEHVPT [I10P]	3.42
KQGSMNFRFMPVLFPNAKKEHVPT [I10M]	2.23
KQGSMNFRFDPVLFPNAKKEHVPT [I10D]	3.37
KQGSMNFRFHPVLFPNAKKEHVPT [I10H]	1.67
KQGSMNFRFLPVLFPNAKKEHVPT [I10L]	2.23
KQGSMNFRFNPVLFPNAKKEHVPT [I10N]	2.9
KQGSMNFRFVPVLFPNAKKEHVPT [I10V]	1.31
KQGSMNFRFSPVLFPNAKKEHVPT [I10S]	2.46
KQGSMNFRFKPVLFPNAKKEHVPT [I10K]	2.56
KQGSMNFRFCPVLFPNAKKEHVPT [I10C]	2.3
KQGSMNFRFGPVLFPNAKKEHVPT [I10G]	2.76
KQGSMNFRFIPVLFPNAKMEHVPT [K19M]	1.59
KQGSMNFRFIPVLFPNAKCEHVPT [K19C]	1.7
KQGSMNFRFIPVLFPNAKIEHVPT [K19I]	1.59
KQGSMNFRFIPVLFPNAKDEHVPT [K19D]	2.13
KQGSMNFRFIPVLFPNAKLEHVPT [K19L]	1.78

Variant	protein stability index
KQGSMNFRFIPVLFPNAKGEHVPT [K19G]	1.95
KQGSMNFRFIPVLFPNAKFEHVPT [K19F]	1.98
KQGSMNFRFIPVLFPNAKNEHVPT [K19N]	1.7
KQGSMNFRFIPVLFPNAKAEHVPT [K19A]	1.66
KQGSMNFRFIPVLFPNAKEEHVPT [K19E]	1.99
KQGSMNFRFIPVLFPNAKHEHVPT [K19H]	2.34
KQGSMNFRFIPVLFPNYKKEHVPT [A17Y]	1.72
KQGSMNFRFIPVLFPNCKKEHVPT [A17C]	1.97
KQGSMNFRFIPVLFPNTKKEHVPT [A17T]	2.86
KQGSMNFRFIPVLFPNMKKEHVPT [A17M]	2.08
KQGSMNFRFIPVLFPNKKKEHVPT [A17K]	1.82
KQGSMNFRFIPVLFPNNKKEHVPT [A17N]	2
KQGSMNFRFIPVLFPNHKKEHVPT [A17H]	1.92
KQGSMNFRFIPVLFPNWKKEHVPT [A17W]	1.74
KQGSMNFRFIPVLFPNIKKEHVPT [A17I]	1.8
KQGSMNFRFIPVLFPNQKKEHVPT [A17Q]	2.38
KQGSMNFRFIPVLFPNPKKEHVPT [A17P]	2.07
KQGSMNFRFIPVLFPNVKKEHVPT [A17V]	1.61
KQGSMNFRFIPVLFPNLKKEHVPT [A17L]	1.89
KQGSMNFRFIPVLFPNDKKEHVPT [A17D]	2.32
KQGSMNFRFIPVLFPNSKKEHVPT [A17S]	2.21
KQGSMNFRFIPVLFPNEKKEHVPT [A17E]	2.47
KQGSMNFRFIPVLFPNFKKEHVPT [A17F]	1.64
KQGSMNFRFIPVLFPNGKKEHVPT [A17G]	2.18

Variant	protein stability index
KQGSMNFRFIPVLFPNRKKEHVPT [A17R]	2
KQGSMNFRFIPVLFPAAKKEHVPT [N16A]	1.75
KQGSMNFRFIPVLFPEAKKEHVPT [N16E]	1.85
KQGSMNFRFIPVLFPIAKKEHVPT [N16I]	2.29
KQGSMNFRFIPVLFPFAKKEHVPT [N16F]	1.63
KQGSMNFRFIPVLFPMAKKEHVPT [N16M]	1.88
KQGSMNFRFIPVLFPDAKKEHVPT [N16D]	1.58
KQGSMNFRFIPVLFPSAKKEHVPT [N16S]	2.33
KQGSMNFRFIPVLFPGAKKEHVPT [N16G]	2.08
KQGSMNFRFIPVLFPHAKKEHVPT [N16H]	1.66
KQGSMNFRFIPVLFPKAKKEHVPT [N16K]	1.72
KQGSMNFRFIPVLFPTAKKEHVPT [N16T]	1.7
KQGSMNFRFIPVLFPWAKKEHVPT [N16W]	2
KQGSMNFRFIPVLFPYAKKEHVPT [N16Y]	1.8
KQGSMNFRFIPVLFPQAKKEHVPT [N16Q]	1.75
KQGSMNFRFIPVLFPRAKKEHVPT [N16R]	2.59
KQGSMNFRFIPVLFPLAKKEHVPT [N16L]	1.66
KQGSMNFRFIPVLFPCAKKEHVPT [N16C]	1.89
KQGSMNFRFIPVLFPPAKKEHVPT [N16P]	1.92
KQGSMNFRFIPVLFPVAKKEHVPT [N16V]	1.55
